Laboratory results: publication PMC5053906 (Neuron, 2016)

Target: the molecule itself
Assay: single molecule subunit counting

B1: C-terminally GFP-tagged mGluR2 (receptor, rat, UniProt P31421 19-872, looked up)
chain: EGPAKKVLTLEGDLVLGGLFPVHQKGGPAEECGPVNEHRGIQRLEAMLFALDRINRDPHLLPGVRLGAHILDSCSKDTHALEQALDFVRASLSRGADGSRHICPDGSYATHSDAPTAVTGVIGGSYSDVSIQVANLLRLFQIPQISYASTSAKLSDKSRYDYFARTVPPDFFQAKAMAEILRFFNWTYVSTVASEGDYGETGIEAFELEARARNICVATSEKVGRAMSRAAFEGVVRALLQKPSARVAVLFTRSEDARELLAATQRLNASFTWVASDGWGALESVVAGSERAAEGAITIELASYPISDFASYFQSLDPWNNSRNPWFREFWEERFHCSFRQRDCAAHSLRAVPFEQESKIMFVVNAVYAMAHALHNMHRALCPNTTHLCDAMRPVNGRRLYKDFVLNVKFDAPFRPADTDDEVRFDRFGDGIGRYNIFTYLRAGSGRYRYQKVGYWAEGLTLDTSFIPWASPSAGPLPASRCSEPCLQNEVKSVQPGEVCCWLCIPCQPYEYRLDEFTCADCGLGYWPNASLTGCFELPQEYIRWGDAWAVGPVTIACLGALATLFVLGVFVRHNATPVVKASGRELCYILLGGVFLCYCMTFVFIAKPSTAVCTLRRLGLGTAFSVCYSALLTKTNRIARIFGGAREGAQRPRFISPASQVAICLALISGQLLIVAAWLVVEAPGTGKETAPERREVVTLRCNHRDASMLGSLAYNVLLIALCTLYAFKTRKCPENFNEAKFIGFTMYTTCIIWLAFLPIFYVTSSDYRVQTTTMCVSVSLSGSVVLGCLFAPKLHIILFQPQKNVVSHRAPTSRFGSAAPRASANLGQGSGSQFVPTVCNGREVVDSTTSSL
stoichiometry N: 2
